This is an account of results in US20230151069A1, “Cyclic Peptides” (LIFEARC, priority 2020, published 2023).

Series [1] relates to 5XFAD mice. Nature of the series: Active immunisation, in vivo glucose metabolism by 18F-FDG-PET/MRI in 5XFAD mice. To be noted: immunized 5XFAD mice, FIG. 30. The arrangement: species or system mouse. The method, then: 18F-FDG-PET/MRI was performed on 5xFAD mice as well as age matched C57Bl/6J wild type mice. Mice were fasted overnight and blood glucose levels were measured before tracer injection. 11.46 to 20.53 MBq (mean 16.81 MBq) 18F-FDG was injected intravenously into a tail vein with a maximum volume of 200 μl followed by an uptake period of 45 minutes. Mice were awake during the uptake process. PET scans were performed for 20 minutes using a small animal 1 Tesla nanoScan PET/MRI (Mediso, Hungary). Mice were anesthetized with isoflurane supplemented with oxygen during the scans and kept on a heated bed (37° C.). Respiratory rate was measured throughout the imaging process. […]
All images were analyzed using PMOD v3.9 (PMOD Technologies, Switzerland) as described before (Bouter et al). […] PET VOI statistics (kBq/cc) were generated for all brain areas and standardized uptake values (SUVs) were calculated [SUV=tissue activity concentration average (kBq/cc)×body weight (g)/injected dose (kBq)] for semi-quantitative analysis. SUVs of 18F-FDG-PET scans were corrected for measured blood glucose levels [SUVGIc=SUV x blood glucose level (mg/dl)]. […]
In vivo glucose metabolism on Alzheimer mice (5XFAD) as well as age matched C57Bl/6J wild type mice was analysed by 18F-FDG-PET/MRI imaging as described above.

For series [2], the system named is 5XFAD mice. Nature of the series: Active immunisation, plaque load by immunohistochemistry in 5XFAD brain sections. The class given is in vivo. Conditions: 5XFAD mouse cortex, FIG. 29. The protocol: 5XFAD mice were immunized with antigen [Thioacetal bridged amyloid-beta peptide 1-14—KLH conjugate; DAC*[…]*HH[Cys]-amide (*S—CH—S bridged, cyclised via positions 3 and 12)] as described previously.
Mice were sacrificed via CO2 anesthetization followed by cervical dislocation. Brain samples were carefully dissected and post-fixed in 4% phosphate-buffered formalin at 4° C. Human and mouse tissue samples were processed as previously described 4. In brief, 4 μm paraffin sections were deparaffinized in xylene, followed by rehydration in a series of ethanol. […] Non-specific binding sites were blocked by treatment with skim milk and fetal calf serum in PBS, prior to the addition of the primary antibodies. The following antibodies were used: polyclonal antibody 24311 against […], monoclonal antibody 1-57 against pyroglumatate Aβ3-X, (Synaptic Sytems, GOttingen, Germany; 1 mg/ml; 1:500), and TAP01_4 (1:200; 2 mg/ml). Corresponding biotinylated secondary anti-human and anti-mouse antibodies (1:200) were purchased from DAKO (Glostrup, Denmark). Staining was visualized using the ABC method, with a Vectastain kit (Vector Laboratories, Burlingame, USA) and diaminobenzidine (DAB) as chromogen. Counterstaining was carried out with hematoxylin.
Plaque load was quantified as previously described (G. Antonios et al., Alzheimer therapy with an antibody against N-terminal Abeta 4-X and pyroglutamate Abeta 3-X. Scientific reports 5, 17338 (2015)). 5-6 paraffin embedded sections, which were at least 80 μm afar from each other, were stained simultaneously with DAB as chromogen. For Thioflavin S fluorescent staining tissue sections were deparaffinized and rehydrated, washed twice in deionized water and then treated with 1% (w/v) ThioflavinS in aqueous solution and counterstained in a 1% (w/v) aqueous solution of 4′6-diamidin-2-phenylindol. The relative Aβ load was evaluated using an Olympus BX-51 microscope equipped with an Olympus DP-50 camera and the ImageJ software (NIH, USA). Representative pictures of 100× magnification were systematically captured. […]

Series [3] has as its system full-length amyloid-beta 1-42. Nature of the series: Reactivity of antibodies induced by the cyclic peptide with full-length amyloid-beta. The class given is in vivo. To be noted: antibodies induced by immunisation. The method, then:
• 1. Coat 384-well plate with 30 μL/well of 100 ng/ml PSL amyloid 1-42 peptide (Human-Peptide Specialty Laboratories-CEM1904161) diluted in carb/bicarb buffer • 2. Incubate at 37° C. for 1 hour • 3. Wash the plate (NUNC 384 program) • 4. […] Incubate at 4° C. overnight • 6. Wash the plate (NUNC 384 program) • 7. […] Transfer 30 μL/well onto the assay plate • 10. Incubate at 37° C. for 1 hour • 11. Wash the plate (NUNC 384 program) • 12. […] Incubate at 37° C. for 1 hour • 14. Wash the plate (NUNC 384 program) • 15. […] Incubate at RT for 10 min in the dark • 17. […] Coat 384-well plate with 30 μL/well of 100 ng/ml PSL amyloid pE3-42 peptide (Human-Peptide Specialty Laboratories-CEM062210 Pyr) diluted in carb/bicarb buffer • 2. Incubate at 37° C. for 1 hour • 3. Wash the plate (NUNC 384 program) • 4. […] Incubate at 4° C. overnight • 6. Wash the plate (NUNC 384 program) • 7. […] Transfer 30 μL/well onto the assay plate • 10. Incubate at 37° C. for 1 hour • 11. Wash the plate (NUNC 384 program) • 12. […] Incubate at 37° C. for 1 hour • 14. Wash the plate (NUNC 384 program) • 15. […] Incubate at RT for 10 min in the dark • 17.

“DAC*FRHDSGYEC*HH[Cys]-amide (*S—CH—S bridged, cyclised via positions 3 and 12)”: the “brain glucose metabolism (18F-FDG uptake)” value with 5XFAD mice [1] is on record as “significant rescue”. The “amyloid-plaque load in brain tissue (pan-Abeta, pyroglutamate Aβ3-X, Thioflavin S, N-truncated Aβ stainings)” value is recorded as “reduction in amyloid-plaque load” in the series on 5XFAD mice [2] (listed as 3-12 linked Aβ1-14 cyclic peptide), “strong reduction of plaques” in the series on 5XFAD mice [2] (listed as cyclised Aβ peptides) and “significant reduction in plaque load” in the series on 5XFAD mice [2] (listed as cyclized Aβ peptide). In series [3], the “reactivity of induced antibodies with full-length amyloid-beta 1-42” value was “do not react”.
